In patent US20250333506A1 (NEW YORK UNIVERSITY, published 2025):
Like-named read-outs stand apart in the source and are kept apart here. Values belong to the binder of their own block, whether it stands above or below them.

Experiments:
Human D1A/G3 = biological target: T1, Human D1A/G3 (biotinylated (AviTag)); assay: bead binding assay: biotinylated TCR-Fc on streptavidin beads, IgG titrated, flow cytometry
T1 construct: also called human Delta1A / Gamma3 TCR-Fc fusion protein

Human D1A/G8 = biological target: T2, Human D1A/G8 (biotinylated (AviTag)); assay: as above
T2 construct: may be the same protein as m34; also called human Delta1A / Gamma8 TCR-Fc fusion protein

[1] = biological target: T3, cynomolgus Gamma/Delta1A TCR-Fc fusion protein (cynomolgus monkey, biotinylated in vitro with recombinant BirA (AviTag)); assay: as above
T3 construct: First chain = delta, second = gamma; also called Cyno D1; cyno D1; not shown: Fc portion of mouse IgG, then AviTag and His6 tag at the C-terminus; Fc portion of mouse IgG

[2] = biological target: T3, cynomolgus Gamma/Delta1A TCR-Fc fusion …; assay: bead binding assay (TCR-Fc on streptavidin beads, IgG titrated, flow cytometry); apparent KD, s.d. of triplicates
Cyno D2 [3] = biological target: T4, Cyno D2 (biotinylated (AviTag)); assay: bead binding assay: biotinylated TCR-Fc on streptavidin beads, IgG titrated, flow cytometry
T4 construct: also called cynomolgus Gamma/Delta2; Cyno D2/G
T4 delta chain: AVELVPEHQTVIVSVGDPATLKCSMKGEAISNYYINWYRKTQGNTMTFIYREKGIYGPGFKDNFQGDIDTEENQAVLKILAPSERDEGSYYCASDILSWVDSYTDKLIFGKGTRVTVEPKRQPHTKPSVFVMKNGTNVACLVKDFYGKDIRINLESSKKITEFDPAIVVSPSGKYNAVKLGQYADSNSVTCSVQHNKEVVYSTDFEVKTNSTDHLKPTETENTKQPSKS
T4 gamma chain: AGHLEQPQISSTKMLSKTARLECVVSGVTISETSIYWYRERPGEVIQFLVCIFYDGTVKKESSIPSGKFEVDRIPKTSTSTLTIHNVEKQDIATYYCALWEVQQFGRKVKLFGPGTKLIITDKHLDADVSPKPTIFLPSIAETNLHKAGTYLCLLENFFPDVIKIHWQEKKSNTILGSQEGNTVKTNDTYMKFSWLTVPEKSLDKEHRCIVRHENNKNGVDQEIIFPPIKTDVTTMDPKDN

Cyno D2 [4] = biological target: T4, Cyno D2; assay: as above
[5] = biological target: T5, human Delta1 TCR (Fc fusion protein, Delta1 clone and gamma chain not stated); assay: bead binding titration, flow cytometry (MFI against antibody concentration)
T5 construct: also called Human Delta1 Fc fusion protein; human delta-1 chain

[6] = biological target: T3, cynomolgus Gamma/Delta1A TCR-Fc fusion …; assay: bead binding assay: biotinylated TCR-Fc on streptavidin beads, IgG titrated, flow cytometry; remark: listed apart in the source
[7] = biological target: T6, cell surface-expressed δ1γ2 TCR on J.RT3-T3.5 Jurkat cells; assay: flow cytometry titration on the D1/G2 TCR Cell Line (9-10 Hi), transduced J.RT3-T3.5 Jurkat cells
T6 construct: whole, on cells; Cells were stained with anti-human reagents; species of the transduced chains is not restated; also called Delta1 and gamma 2

[8] = biological target: T7, cell surface-expressed δ1-γ4 TCR on J.RT3-T3.5 Jurkat cells; assay: flow cytometry titration on the D1/G4 TCR Cell Line (DP10 Hi), transduced J.RT3-T3.5 Jurkat cells
T7 construct: whole, on cells; also called Delta1 and gamma 4; delta1/gamma-4

[9] = biological target: T8, cynomolgus monkey Delta1 Fc fusion protein (Delta1 clone not stated); assay: bio-layer interferometry (Octet), biotinylated receptor on streptavidin sensor tips, antibody in solution; KD Error 1.33e-012
T8 construct: also called monkey (cyno) delta-1 chain; monkey Delta1 receptors

[10] = biological target: T9, cell surface-expressed δ1-γ5 TCR on J.RT3-T3.5 Jurkat cells; assay: flow cytometry titration on the D1/G5 TCR Cell Line (AB Hi), transduced J.RT3-T3.5 Jurkat cells
T9 construct: whole, on cells; also called Delta1 and gamma 5

[11] = biological target: T5, human Delta1 TCR (Fc fusion protein, …); assay: bio-layer interferometry (Octet), biotinylated receptor on streptavidin sensor tips, antibody in solution; KD Error 1.14e-012
[12] = biological target: T3, cynomolgus Gamma/Delta1A TCR-Fc fusion …; assay: bead binding assay by the table's title (paragraph 456 gives the same value for Octet BLI, FIG. 22B); apparent KD; apparent KD, IgG format, bead binding assay; measured once
[13] = biological target: T10, cell surface-expressed δ1γ3 TCR on J.RT3-T3.5 Jurkat cells; assay: flow cytometry titration on the D1/G3 TCR Cell Line (16-3 Hi), transduced J.RT3-T3.5 Jurkat cells
T10 construct: whole, on cells; also called Delta1 and gamma 3

[14] = biological target: T11, cell surface-expressed δ1-γ8 TCR on J.RT3-T3.5 Jurkat cells; assay: flow cytometry titration on the D1/G8 TCR Cell Line (9-2 Hi), transduced J.RT3-T3.5 Jurkat cells
T11 construct: whole, on cells; also called Delta1 and gamma 8

[15] = biological target: T12, cell surface-expressed δ1-γ9 TCR on J.RT3-T3.5 Jurkat cells; assay: flow cytometry titration on the D1/G9 TCR Cell Line (JR2 Hi), transduced J.RT3-T3.5 Jurkat cells
T12 construct: whole, on cells; also called Delta1/Gamma9 TCR on the surface; delta1/gamma-9

Cyno D2 [16] = biological target: T4, Cyno D2; assay: bead binding assay: biotinylated TCR-Fc on streptavidin beads, IgG titrated, flow cytometry
Cyno D2 [17] = biological target: T4, Cyno D2; assay: as above
[18] = biological target: T3, cynomolgus Gamma/Delta1A TCR-Fc fusion …; assay: bead binding assay (TCR-Fc on streptavidin beads, IgG titrated, flow cytometry); apparent KD
Cyno D2 [19] = biological target: T4, Cyno D2; assay: bead binding assay: biotinylated TCR-Fc on streptavidin beads, IgG titrated, flow cytometry
Cyno D2 [20] = biological target: T4, Cyno D2; assay: as above
Cyno D2 [21] = biological target: T4, Cyno D2; assay: as above
Cyno D2 [22] = biological target: T4, Cyno D2; assay: as above

T2 sequence (delta chain, as listed by the source, chain 1 of 2): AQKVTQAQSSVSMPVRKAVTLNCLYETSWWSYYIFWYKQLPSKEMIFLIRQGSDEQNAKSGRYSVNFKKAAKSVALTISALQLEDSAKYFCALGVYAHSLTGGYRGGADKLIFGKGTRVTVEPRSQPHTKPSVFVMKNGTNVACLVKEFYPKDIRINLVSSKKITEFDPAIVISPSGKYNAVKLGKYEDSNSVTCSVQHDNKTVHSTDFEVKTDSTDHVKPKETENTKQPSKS
T2 sequence (gamma chain, as listed by the source, chain 2 of 2): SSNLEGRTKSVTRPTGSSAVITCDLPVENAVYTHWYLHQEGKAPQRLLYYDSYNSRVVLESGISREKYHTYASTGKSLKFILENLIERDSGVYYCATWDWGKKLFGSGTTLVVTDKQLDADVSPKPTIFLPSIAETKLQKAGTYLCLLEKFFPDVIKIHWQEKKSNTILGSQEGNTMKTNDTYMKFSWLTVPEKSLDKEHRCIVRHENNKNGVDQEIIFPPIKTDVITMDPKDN
T1 sequence (delta chain, as listed by the source, chain 1 of 2): as the sequence (delta chain, as listed by the source, chain 1 of 2) above
T1 sequence (gamma chain, as listed by the source, chain 2 of 2): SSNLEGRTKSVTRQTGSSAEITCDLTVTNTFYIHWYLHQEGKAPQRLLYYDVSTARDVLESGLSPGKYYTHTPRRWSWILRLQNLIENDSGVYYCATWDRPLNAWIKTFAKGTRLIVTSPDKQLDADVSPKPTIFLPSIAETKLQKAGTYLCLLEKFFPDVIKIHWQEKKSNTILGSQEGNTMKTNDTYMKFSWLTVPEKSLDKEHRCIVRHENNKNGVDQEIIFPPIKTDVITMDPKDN

B1: Delta1-23 (antibody, V domains shown)
VH: EVQLVESGGGLVQPGGSLRLSCAASGFTVSSSSIHWVRQAPGKGLEWVASIYSSSGYTYYADSVKGRFTISADTSKNTAYLQMNSLRAEDTAVYYCARDPGSYYWYYSGSAYEGYGLDYWGQGTLVTVSS
VL: DIQMTQSPSSLSASVGDRVTITCRASQSVSSAVAWYQQKPGKAPKLLIYAASSLQSGVPSRFSGSRSGTDFTLTISSLQPEDFATYYCQQQSKYPFLITFGQGTKVEIKR
notes: Tested in the human IgG format; also called anti-Delta1-23
binding result (Human D1A/G3): binds | binding result (Human D1A/G8): binds | EC50 (read off the curve) [1]: ~5 nM | Kd [2]: 1.3 nM | binding result (Cyno D2 [3]): no binding (tested: 100 nM)

B2: Delta1-22 (antibody, V domains shown)
VH: EVQLVESGGGLVQPGGSLRLSCAASGFTVSSSSIHWVRQAPGKGLEWVASIYSSSGYTYYADSVKGRFTISADTSKNTAYLQMNSLRAEDTAVYYCARDPGSYYWYYSGSAYEGYGLDYWGQGTLVTVSS
VL: DIQMTQSPSSLSASVGDRVTITCRASQSVSSAVAWYQQKPGKAPKLLIYAASSLQSGVPSRFSGSRSGTDFTLTISSLQPEDFATYYCQQRSRYYSLITFGQGTKVEIKR
notes: Tested in the human IgG format
binding result (Cyno D2 [4]): no binding (tested: 100 nM) | Kd [2]: 0.61 nM

B3: Delta1-39 (antibody, V domains shown)
VH: EVQLVESGGGLVQPGGSLRLSCAASGFTFTANDIHWVRQAPGKGLEWVASIYSSSGYTYYADSVKGRFTISADTSKNTAYLQMNSLRAEDTAVYYCARDPGSYYWYYSGSAYEGYGLDYWGQGTLVTVSS
VL: DIQMTQSPSSLSASVGDRVTITCRASQSVSSAVAWYQQKPGKAPKLLIYAASSLQSGVPSRFSGSRSGTDFTLTISSLQPEDFATYYCQQQSKYPFLITFGQGTKVEIKR
notes: Tested in the human IgG format; also called anti-Delta1-39; Delta-39
EC50 (read off the curve) [5]: ~1 nM | EC50 (read off the curve) [6]: ~2 nM | EC50 (read off the curve) [7]: ~7 nM | EC50 (read off the curve) [8]: ~9 nM | Kd [9]: 0.285 nM | EC50 (read off the curve) [10]: ~4 nM | Kd [11]: 0.231 nM | Kd [12]: 0.28 nM | EC50 (read off the curve) [13]: ~6 nM | EC50 (read off the curve) [14]: ~6 nM | EC50 (read off the curve) [15]: ~10 nM

B4: Delta1-26 (antibody, V domains shown)
VH: EVQLVESGGGLVQPGGSLRLSCAASGFTVSSSSIHWVRQAPGKGLEWVASIYSSSGYTYYADSVKGRFTISADTSKNTAYLQMNSLRAEDTAVYYCARDPGSYYWYYSGSAYEGYGLDYWGQGTLVTVSS
VL: DIQMTQSPSSLSASVGDRVTITCRASQSVSSAVAWYQQKPGKAPKLLIYAASSLQSGVPSRFSGSRSGTDFTLTISSLQPEDFATYYCQQQQRYSYLITFGQGTKVEIKR
notes: as for B2
binding result (Cyno D2 [16]): no binding (tested: 100 nM) | Kd [2]: 0.26 nM

B6: Delta1-20 (antibody, V domains shown)
VH: EVQLVESGGGLVQPGGSLRLSCAASGFTVSSSSIHWVRQAPGKGLEWVASIYSSSGYTYYADSVKGRFTISADTSKNTAYLQMNSLRAEDTAVYYCARDPGSYYWYYSGSAYEGYGLDYWGQGTLVTVSS
VL: DIQMTQSPSSLSASVGDRVTITCRASQSVSSAVAWYQQKPGKAPKLLIYAASSLQSGVPSRFSGSRSGTDFTLTISSLQPEDFATYYCQQYCRKSSLFTFGQGTKVEIKR
notes: as for B2
Kd [18]: 0.34 nM | binding result (Cyno D2 [19]): no binding (tested: 100 nM)

B9: Delta1-25 (antibody, V domains shown)
VH: EVQLVESGGGLVQPGGSLRLSCAASGFTVSSSSIHWVRQAPGKGLEWVASIYSSSGYTYYADSVKGRFTISADTSKNTAYLQMNSLRAEDTAVYYCARDPGSYYWYYSGSAYEGYGLDYWGQGTLVTVSS
VL: DIQMTQSPSSLSASVGDRVTITCRASQSVSSAVAWYQQKPGKAPKLLIYAASSLQSGVPSRFSGSRSGTDFTLTISSLQPEDFATYYCQQIGRRSSLITFGQGTKVEIKR
notes: as for B2
Kd [2]: 0.48 nM | binding result (Cyno D2 [22]): no binding (tested: 100 nM)

The remaining lines, values ahead:

binding result (Cyno D2 [17]): no binding (tested: 100 nM) | Kd [18]: 0.15 nM
B5: Delta1-18 (antibody, V domains shown)
VH: EVQLVESGGGLVQPGGSLRLSCAASGFTVSSSSIHWVRQAPGKGLEWVASIYSSSGYTYYADSVKGRFTISADTSKNTAYLQMNSLRAEDTAVYYCARDPGSYYWYYSGSAYEGYGLDYWGQGTLVTVSS
VL: DIQMTQSPSSLSASVGDRVTITCRASQSVSSAVAWYQQKPGKAPKLLIYAASSLQSGVPSRFSGSRSGTDFTLTISSLQPEDFATYYCQQRSRVYSLVTFGQGTKVEIKR
notes: as for B2

binding result (Cyno D2 [20]): no binding (tested: 100 nM) | Kd [18]: 1.16 nM
B7: Delta1-24 (antibody, V domains shown)
VH: EVQLVESGGGLVQPGGSLRLSCAASGFTVSSSSIHWVRQAPGKGLEWVASIYSSSGYTYYADSVKGRFTISADTSKNTAYLQMNSLRAEDTAVYYCARDPGSYYWYYSGSAYEGYGLDYWGQGTLVTVSS
VL: DIQMTQSPSSLSASVGDRVTITCRASQSVSSAVAWYQQKPGKAPKLLIYAASSLQSGVPSRFSGSRSGTDFTLTISSLQPEDFATYYCQQSNRSYPPLTFGQGTKVEIKR
notes: as for B2

binding result (Cyno D2 [21]): no binding (tested: 100 nM) | Kd [2]: 1.74 nM
B8: Delta1-21 (antibody, V domains shown)
VH: EVQLVESGGGLVQPGGSLRLSCAASGFTVSSSSIHWVRQAPGKGLEWVASIYSSSGYTYYADSVKGRFTISADTSKNTAYLQMNSLRAEDTAVYYCARDPGSYYWYYSGSAYEGYGLDYWGQGTLVTVSS
VL: DIQMTQSPSSLSASVGDRVTITCRASQSVSSAVAWYQQKPGKAPKLLIYAASSLQSGVPSRFSGSRSGTDFTLTISSLQPEDFATYYCQQQQRTSYLITFGQGTKVEIKR
notes: as for B2
